# In patent US20230416396A1 (Regeneron, published 2023):
# B1: REGN9682 (bispecific antibody, human IgG4 S228P, kappa)
# heavy 1: EVQLVESGGGLVQPGRSLRLSCGASGFTFDDYVMHWVRQIPGKGLEWVAGISWNSGSIGYADSVKGRFTISRDNAKNSLYLQMNSLRAEDTALYFCAKDHIDPYSSSLYYYYGMDVWGQGTTVTVSSASTKGPSVFPLAPCSRSTSESTAALGCLVKDYFPEPVTVSWNSGALTSGVHTFPAVLQSSGLYSLSSVVTVPSSSLGTKTYTCNVDHKPSNTKVDKRVGGGGSGGGGSGGGGSEVQLVESGGGLVQPGRSLRLSCGASGFTFDDYVMHWVRQIPGKGLEWVAGISWNSGSIGYADSVKGRFTISRDNAKNSLYLQMNSLRAEDTALYFCAKDHIDPYSSSLYYYYGMDVWGQGTTVTVSSASTKGPSVFPLAPCSRSTSESTAALGCLVKDYFPEPVTVSWNSGALTSGVHTFPAVLQSSGLYSLSSVVTVPSSSLGTKTYTCNVDHKPSNTKVDKRVESKYGPPCPPCPAPPVAGPSVFLFPPKPKDTLMISRTPEVTCVVVDVSQEDPEVQFNWYVDGVEVHNAKTKPREEQFNSTYRVVSVLTVLHQDWLNGKEYKCKVSNKGLPSSIEKTISKAKGQPREPQVYTLPPSQEEMTKNQVSLTCLVKGFYPSDIAVEWESNGQPENNYKTTPPVLDSDGSFFLYSRLTVDKSRWQEGNVFSCSVMHEALHNRFTQKSLSLSPGK
# heavy 2: EVQLVESGGGLVQPGRSLRLSCAASGFTFDDYAMHWVRQAPGKGLEWVSGISWKSDNIGYADSVKGRFTISRDNAKNSLYLQMNSLRAEDTALYYCAKALGGWKFDYYYGMDVWGQGTTVTVSSASTKGPSVFPLAPCSRSTSESTAALGCLVKDYFPEPVTVSWNSGALTSGVHTFPAVLQSSGLYSLSSVVTVPSSSLGTKTYTCNVDHKPSNTKVDKRVESKYGPPCPPCPAPPVAGPSVFLFPPKPKDTLMISRTPEVTCVVVDVSQEDPEVQFNWYVDGVEVHNAKTKPREEQFNSTYRVVSVLTVLHQDWLNGKEYKCKVSNKGLPSSIEKTISKAKGQPREPQVYTLPPSQEEMTKNQVSLTCLVKGFYPSDIAVEWESNGQPENNYKTTPPVLDSDGSFFLYSRLTVDKSRWQEGNVFSCSVMHEALHNHYTQKSLSLSLGK
# light: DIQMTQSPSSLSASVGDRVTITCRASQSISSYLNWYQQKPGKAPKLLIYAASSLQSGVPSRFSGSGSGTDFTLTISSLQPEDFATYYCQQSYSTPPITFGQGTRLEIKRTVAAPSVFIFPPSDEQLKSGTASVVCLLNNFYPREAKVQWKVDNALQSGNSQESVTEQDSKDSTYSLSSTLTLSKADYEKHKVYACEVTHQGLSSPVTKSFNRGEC
# notes: 1+2 format, hIgG4P-PVA; The linker between the two 4-1BB Fabs is (G4S)3; also called CD38x4-1BB (1 + 2), (G4S)3; 26812P2 x 35333P2 (IN) + 35333P2 (OUT)
# Key:
# [1] = target: T1, human 4-1BB expressed with a C-terminal murine Fc tag (human, UniProt Q07011 24-186); assay: SPR Biacore 4000, h4-1BB.mFc captured by anti-mouse Fc, antibody as analyte, 25 C
# T1 construct: also called h4-1BB.mFc; REGN3585; not shown: C-terminal murine Fc tag
# T1 sequence (Q07011 24-186 limits assumed): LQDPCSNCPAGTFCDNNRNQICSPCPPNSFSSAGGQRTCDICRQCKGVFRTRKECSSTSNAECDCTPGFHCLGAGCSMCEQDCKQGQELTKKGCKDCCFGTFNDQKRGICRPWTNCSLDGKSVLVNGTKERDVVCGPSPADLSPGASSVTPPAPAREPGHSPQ
# Description: Equilibrium dissociation constants (KD values) for human 4-1BB expressed with a C-terminal murine Fc tag (h4-1BB.mFc, REGN3585) binding to purified anti-CD38×4-1BB 1+2 antibodies were determined using a real-time surface plasmon resonance biosensor using a Biacore 4000 instrument. […] All Biacore binding studies were performed in a buffer composed of 0.01M HEPES pH 7.4, 0.15M NaCl, 3 mM EDTA, 0.05% v/v Surfactant P20 (HBS-EP running buffer). Different concentrations of CD38×4-1BB 1+2 constructs prepared in HBS-EP running buffer (ranging from 100 to 6.25 nM in 4-fold serial dilutions) were injected over the h4-1BB.mFc (REGN3585) captured surface at a flow rate of 30 μL/minute. Antibody-reagent association was monitored for 5 minutes while dissociation in HBS-EP running buffer was monitored for 10 minutes. At the end of each cycle, the h4-1BB.mFc capture surface was regenerated using a 40 sec injection of 10 mM glycine, pH 1.5. All binding kinetics experiments were performed at 25° C.
# (§1) Kinetic association (kₐ) and dissociation (kd) rate constants were determined by fitting the real-time sensorgrams to a 1:1 binding model using Cytiva Insight curve fitting software. Binding dissociation equilibrium constants (KD) and dissociative half-lives (t/2) were calculated from the kinetic rate constants as: […]
# human 4-1BB on cells [2] = target: T2, human 4-1BB on cells (human, UniProt Q07011 24-255); assay: cell-based or functional assay
# T2 sequence (Q07011 24-255): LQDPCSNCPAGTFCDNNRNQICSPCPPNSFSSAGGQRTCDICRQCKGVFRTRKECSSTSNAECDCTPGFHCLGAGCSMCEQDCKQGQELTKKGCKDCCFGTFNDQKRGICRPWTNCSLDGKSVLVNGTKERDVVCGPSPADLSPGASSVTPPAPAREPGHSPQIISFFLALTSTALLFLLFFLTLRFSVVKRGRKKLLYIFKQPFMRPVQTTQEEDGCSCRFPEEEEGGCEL
# [3] = target: T3, human 4-1BB expressed with a C-terminal myc-myc-hexahistidine tag (human, UniProt Q07011 24-186); assay: SPR Biacore 8k, antibody captured by anti-human Fc, h4-1BB.mmH as analyte, 25 C
# T3 construct: also called h4-1BB.mmH; REGN3584; not shown: C-terminal myc-myc-hexahistidine tag
# T3 sequence (Q07011 24-186 limits assumed): as the sequence (Q07011 24-186 limits assumed) above
# Description: (§2) Equilibrium dissociation constants (KD values) for human 4-1BB expressed with a C-terminal myc-myc-hexahistidine tag (h4-1BB.mmH, REGN3584) or human 4-1BB expressed with a C-terminal murine Fc tag (h4-1BB.mFc, REGN3585) binding to purified anti-CD38×4-1BB 1+2 antibodies were determined using a real-time surface plasmon resonance biosensor using a Biacore 8k instrument. The CM5 Biacore sensor surface was derivatized by amine coupling with a monoclonal mouse anti-human Fc antibody (REGN2567). All Biacore binding studies were performed in a buffer composed of 0.01M HEPES pH 7.4, 0.15M NaCl, 3 mM EDTA, 0.05% v/v Surfactant P20 (HBS-EP running buffer). […] Antibody-reagent association was monitored for 5 minutes while dissociation in HBS-EP running buffer was monitored for 10 minutes. At the end of each cycle, the anti-CD38×4-1BB 1+2 antibody capture surface was regenerated using a 10 second injection of 20 mM phosphoric acid. All binding kinetics experiments were performed at 25° C.
# as §1
# [4] = target: T1, human 4-1BB expressed with a C-terminal …; assay: SPR Biacore 8k, antibody captured by anti-human Fc, h4-1BB.mFc as analyte, 25 C
# Description: as §2, §1
# human 4-1BB on cells [5] = target: T2, human 4-1BB on cells; assay: cell-based or functional assay; remark: listed apart in the source
# human 4-1BB on cells [6] = target: T2, human 4-1BB on cells; assay: cell-based or functional assay; remark: listed apart in the source
binder,measurement,setting,value
B1,100 nM Ab Bind (RU),[1],234 RU
same,Kd,[1],0.716 nM
same,koff,[1],0.000308 s⁻¹
same,kon,[1],430000 M⁻¹ s⁻¹
same,t½,[1],37.6 min
same,"EC50 of luciferase activity, HEK293/NFkB-Luc/h4-1BB reporter + OPM2",human 4-1BB on cells [2],21.9 pM
same,"MAX luciferase activity, HEK293/NFkB-Luc/h4-1BB reporter + HEK293/CD20",human 4-1BB on cells [2],1e+06 RLU
same,"MAX luciferase activity, HEK293/NFkB-Luc/h4-1BB reporter + HEK293/CD20/CD38",human 4-1BB on cells [2],2.4e+06 RLU
same,"MAX luciferase activity, HEK293/NFkB-Luc/h4-1BB reporter + MOLP-8",human 4-1BB on cells [2],2.2e+06 RLU
same,"MAX luciferase activity, HEK293/NFkB-Luc/h4-1BB reporter + OPM2",human 4-1BB on cells [2],2.1e+06 RLU
same,100 nM h4-1BB.mmH Bind (RU),[3],107 RU
same,Kd,[3],13.8 nM
same,koff,[3],0.00494 s⁻¹
same,kon,[3],358000 M⁻¹ s⁻¹
same,t½,[3],2.3 min
same,100 nM h4-1BB.mFc Bind (RU),[4],283 RU
same,Kd,[4],0.86 nM
same,koff,[4],0.000177 s⁻¹
same,kon,[4],206000 M⁻¹ s⁻¹
same,t½,[4],65.3 min
same,"EC50 of IFNγ release, T cells + HEK293/CD20/CD38 + REGN2281",human 4-1BB on cells [5],52.6 pM
same,"EC50 of IFNγ release, T cells + MOLP-8 + REGN5458",human 4-1BB on cells [5],72.5 pM
same,"EC50 of IFNγ release, T cells + NALM-6",human 4-1BB on cells [5],41.9 pM
same,"MAX IFNγ release, T cells + HEK293/CD20 + REGN2281",human 4-1BB on cells [5],1570 pg/mL
same,"MAX IFNγ release, T cells + HEK293/CD20/CD38 + REGN2281",human 4-1BB on cells [5],5270 pg/mL
same,"MAX IFNγ release, T cells + MOLP-8 + IsoC",human 4-1BB on cells [5],161 pg/mL
same,"MAX IFNγ release, T cells + MOLP-8 + REGN5458",human 4-1BB on cells [5],3410 pg/mL
same,"MAX IFNγ release, T cells + NALM-6",human 4-1BB on cells [5],658 pg/mL
same,"EC50 of IL-2 release, T cells + HEK293/CD20/CD38 + REGN2281",human 4-1BB on cells [6],60.7 pM
same,"EC50 of IL-2 release, T cells + MOLP-8 + REGN5458",human 4-1BB on cells [6],133 pM
same,"EC50 of IL-2 release, T cells + NALM-6",human 4-1BB on cells [6],71.7 pM
same,"MAX IL-2 release, T cells + HEK293/CD20 + REGN2281",human 4-1BB on cells [6],52 pg/mL
same,"MAX IL-2 release, T cells + HEK293/CD20/CD38 + REGN2281",human 4-1BB on cells [6],912 pg/mL
same,"MAX IL-2 release, T cells + MOLP-8 + IsoC",human 4-1BB on cells [6],96 pg/mL
same,"MAX IL-2 release, T cells + MOLP-8 + REGN5458",human 4-1BB on cells [6],79 pg/mL
same,"MAX IL-2 release, T cells + NALM-6",human 4-1BB on cells [6],205 pg/mL
